# Laboratory results from US7229788.
# B1: human plasmin (Sigma) (protein)
# chain: KVYLSECKTGNGKNYRGTMSKTKNGITCQKWSSTSPHRPRFSPATHPSEGLEENYCRNPDNDPQGPWCYTTDPEKRYDYCDILECEEECMHCSGENYDGKISKTMSGLECQAWDSQSPHAHGYIPSKFPNKNLKKNYCRNPDRELRPWCFTTDPNKRWELCDIPRCTTPPPSSGPTYQCLKGTGENYRGNVAVTVSGHTCQHWSAQTPHTHNRTPENFPCKNLDENYCRNPDGKRAPWCHTTNSQVRWEYCKIPSCDSSPVSTEQLAPTAPPELTPVVQDCYHGDGQSYRGTSSTTTTGKKCQSWSSMTPHRHQKTPENYPNAGLTMNYCRNPDADKGPWCFTTDPSVRWEYCNLKKCSGTEASVVAPPPVVLLPDVETPSEEDCMFGNGKGYRGKRATTVTGTPCQDWAAQEPHRHSIFTPETNPRAGLEKNYCRNPDGDVGGPWCYTTNPRKLYDYCDVPQCAAPSFDCGKPQVEPKKCPGRVVGGCVAHPHSWPWQVSLRTRFGMHFCGGTLISPEWVLTAAHCLEKSPRPSSYKVILGAHQEVNLEPHVQEIEVSRLFLEPTRKDIALLKLSSPAVITDKVIPACLPSPNYVVADRTECFITGWGETQGTFGAGLLKEAQLPVIENKVCNRYEFLNGRVQSTELCAGHLAGGTDSCQGDSGGPLVCFEKDKYILQGVTSWGLGCARPNKPGVYVRVSRFVTWIEGVMRNN
# B2: Gelatinase B (92 kDa gelatinase) (protein)
# chain: MRTPRCGVPDLGRFQTFEGDLKWHHHNITYWIQNYSEDLPRAVIDDAFARAFALWSAVTPLTFTRVYSRDADIVIQFGVAEHGDGYPFDGKDGLLAHAFPPGPGIQGDAHFDDDELWSLGKGVVVPTRFGNADGAACHFPFIFEGRSYSACTTDGRSDGLPWCSTTANYDTDDRFGFCPSERLYTQDGNADGKPCQFPFIFQGQSYSACTTDGRSDGYRWCATTANYDRDKLFGFCPTRADSTVMGGNSAGELCVFPFTFLGKEYSTCTSEGRGDGRLWCATTSNFDSDKKWGFCPDQGYSLFLVAAHEFGHALGLDHSSVPEALMYPMYRFTEGPPLHKDDVNGIRHLYGPRPEPEPRPPTTTTPQPTAPPTVCPTGPPTVHPSERPTAGPTGPPSAGPTGPPTAGPSTATTVPLSPVDDACNVNIFDAIAEIGNQLYLFKDGKYWRFSEGRGSRPQGPFLIADKWPALPRKLDSVFEERLSKKLFFFSGRQVWVYTGASVLGPRRLDKLGLGADVAQVTGALRSGRGKMLLFSGRRLWRFDVKAQMVDPRSASEVDRMFPGVPLDTHDVFQYREKAYFCQDRFYWRVSSRSELNQVDQVGYVTYDILQCPED
# B3: Gelatinase A (72 kDa gelatinase) (protein)
# chain: YNFFPRKPKWDKNQITYRIIGYTPDLDPETVDDAFARAFQVWSDVTPLRFSRIHDGEADIMINFGRWEHGDGYPFDGKDGLLAHAFAPGTGVGGDSHFDDDELWTLGEGQVVRVKYGNADGEYCKFPFLFNGKEYNSCTDTGRSDGFLWCSTTYNFEKDGKYGFCPHEALFTMGGNAEGQPCKFPFRFQGTSYDSCTTEGRTDGYRWCGTTEDYDRDKKYGFCPETAMSTVGGNSEGAPCVFPFTFLGNKYESCTSAGRSDGKMWCATTANYDDDRKWGFCPDQGYSLFLVAAHEFGHAMGLEHSQDPGALMAPIYTYTKNFRLSQDDIKGIQELYGASPDIDLGTGPTPTLGPVTPEICKQDIVFDGIAQIRGEIFFFKDRFIWRTVTPRDKPMGPLLVATFWPELPEKIDAVYEAPQEEKAVFFAGNEYWIYSASTLERGYPKPLTSLGLPPDVQRVDAAFNWSKNKKTYIFAGDKFWRYNEVKKKMDPGFPKLIADAWNAIPDNLDAVVDLQGGGHSYFFKGAYYLKLENQSLKSVKFGSIKSDWLGC
# B4: human leukocyte elastase (HLE) (Sigma) (protein)
# chain: IVGGRRARPHAWPFMVSLQLRGGHFCGATLIAPNFVMSAAHCVANVNVRAVRVVLGAHNLSRREPTRQVFAVQRIFENGYDPVNLLNDIVILQLNGSATINANVQVAQLPAQGRRLGNGVQCLAMGWGLLGRNRGIASVLQELNVTVVTSLCRRSNVCTLVRGRQAGVCFGDSGSPLVCNGLIHGIASFVRGGCASGLYPDAFAPVAQFVNWIDSIIQ
# Key:
# [1] = biological target: T1, serine protease site peptide (SPS-peptide), N-…-C
# T1 chain: KAQLRAAAGLGAGI
# [2] = biological target: T2, SHEL (synthetic human elastin; recombinant human tropoelastin splice form)
# T2 chain: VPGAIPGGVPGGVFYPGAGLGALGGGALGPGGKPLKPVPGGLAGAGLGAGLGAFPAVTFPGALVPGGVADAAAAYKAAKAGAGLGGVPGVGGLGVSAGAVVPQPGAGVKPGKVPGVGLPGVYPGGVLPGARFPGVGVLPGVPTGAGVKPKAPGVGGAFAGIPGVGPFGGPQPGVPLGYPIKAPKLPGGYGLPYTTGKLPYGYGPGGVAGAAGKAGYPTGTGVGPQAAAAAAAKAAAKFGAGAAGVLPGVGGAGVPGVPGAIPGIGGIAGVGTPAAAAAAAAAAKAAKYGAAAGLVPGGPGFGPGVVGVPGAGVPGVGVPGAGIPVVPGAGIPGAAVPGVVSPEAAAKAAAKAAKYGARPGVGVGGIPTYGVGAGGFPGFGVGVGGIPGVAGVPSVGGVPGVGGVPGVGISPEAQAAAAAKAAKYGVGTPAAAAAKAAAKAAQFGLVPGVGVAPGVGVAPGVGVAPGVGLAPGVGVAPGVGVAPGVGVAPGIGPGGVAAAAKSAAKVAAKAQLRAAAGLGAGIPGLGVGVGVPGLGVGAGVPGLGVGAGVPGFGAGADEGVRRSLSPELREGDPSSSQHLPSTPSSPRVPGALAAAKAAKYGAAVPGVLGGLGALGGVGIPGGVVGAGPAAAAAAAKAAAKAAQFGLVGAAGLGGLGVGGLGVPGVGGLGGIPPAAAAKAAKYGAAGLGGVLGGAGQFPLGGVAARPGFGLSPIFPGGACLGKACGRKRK
# [3] = biological target: T3, SHELδ26A (SHEL lacking the sequence of exon 26A)
# T3 chain: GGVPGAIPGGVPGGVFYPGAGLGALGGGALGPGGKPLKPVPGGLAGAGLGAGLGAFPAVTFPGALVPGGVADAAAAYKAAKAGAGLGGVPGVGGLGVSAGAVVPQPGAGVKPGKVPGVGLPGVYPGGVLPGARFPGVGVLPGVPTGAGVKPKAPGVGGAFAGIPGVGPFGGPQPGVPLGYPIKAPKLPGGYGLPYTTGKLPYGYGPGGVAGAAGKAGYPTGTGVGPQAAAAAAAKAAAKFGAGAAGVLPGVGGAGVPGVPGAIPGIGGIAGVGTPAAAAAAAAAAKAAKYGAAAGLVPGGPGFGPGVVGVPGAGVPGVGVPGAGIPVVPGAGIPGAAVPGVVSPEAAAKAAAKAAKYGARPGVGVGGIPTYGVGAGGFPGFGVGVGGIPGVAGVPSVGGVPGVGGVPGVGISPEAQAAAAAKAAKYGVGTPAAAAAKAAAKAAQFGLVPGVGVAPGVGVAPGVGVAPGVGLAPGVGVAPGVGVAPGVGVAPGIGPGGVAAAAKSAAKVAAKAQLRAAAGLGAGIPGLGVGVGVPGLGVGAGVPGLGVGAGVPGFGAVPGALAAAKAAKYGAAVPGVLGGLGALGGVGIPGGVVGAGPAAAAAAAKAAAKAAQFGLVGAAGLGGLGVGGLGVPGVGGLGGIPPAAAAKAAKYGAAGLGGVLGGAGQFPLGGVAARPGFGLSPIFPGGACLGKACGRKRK
protein,measurement,setting,value
B1,"amount of full-length SHEL after plasmin digestion with a 100:1 molar excess of SPS-peptide, SDS-PAGE and densitometry (also seen with SHELδ26A, not shown)",[1],"more full-length SHEL was evident compared with controls using trypsin, plasmin, kallikrein and serum"
same,"degradation of SHEL by human plasmin, SDS-PAGE",[2],"Major bands could be isolated using low concentration plasmin at 55, 45, 40, 34, 28, 22 and 18 kDa"
B2,"digestion of SHEL by APMA-treated gelatinase B, SDS-PAGE",[2],Digestion with gelatinase A and gelatinase B (each previously treated with APMA) of SHEL revealed SDS-PAGE patterns of preferentially digested fragments
B3,"digestion of SHEL by APMA-treated gelatinase A, SDS-PAGE",[2],Digestion with gelatinase A and gelatinase B (each previously treated with APMA) of SHEL revealed SDS-PAGE patterns of preferentially digested fragments
B4,"amount of full-length SHEL after HLE digestion with SPS-peptide, SDS-PAGE and densitometry",[1],SPS-peptide also resulted in more full-length SHEL using thrombin and HLE but to a lesser extent
same,"degradation of SHEL by human leukocyte elastase, SDS-PAGE",[2],numerous fragments were seen with two prominent fragments at 32 and 18 kDa
same,"degradation of SHELδ26A by human leukocyte elastase, SDS-PAGE",[3],SHELδ26A produced a similar profile but with a series of fragments appearing 4 kDa smaller
